Patent US7459544 (GENETICS INSTITUTE, dated 2008)

Biological target: Human CTLA4 fusion protein (CTLA4Ig) (human, UniProt P16410 36-161)
Test: solid phase competition on immobilized CTLA4-Ig; reference B7-1Ig

Chain of Human CTLA4 fusion protein (CTLA4Ig) (P16410 36-161): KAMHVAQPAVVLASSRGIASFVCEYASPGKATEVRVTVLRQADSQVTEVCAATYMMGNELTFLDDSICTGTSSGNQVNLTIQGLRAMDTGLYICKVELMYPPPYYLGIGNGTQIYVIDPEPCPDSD

fold lower avidity than B7-1: ~2 fold
B1: human B7-2 immunoglobulin fusion protein (hB7-2Ig, full extracellular domain) (Fc fusion)
chain: APLKIQAYFNETADLPCQFANSQNQSLSELVVFWQDQENLVLNEVYLGKEKFDSVHSKYMGRTSFDSDSWTLRLHNLQIKDKGLYQCIIHHKKPTGMIRIHQMNSELSVLANFSQPEIVPISNITENVYINLTCSSIHGYPEPKKMSVLLRTKNSTIEYDGIMQKSQDNVTELYDVSISLSVSFPDVTSNMTIFCILETDKTRLLSSPFSIELEDPQPPPD
modifications: Biotinylated or 125I-labelled in some assays.
notes: Coated on plates, biotinylated or 125I-labelled depending on the assay; also called human B7.2-Ig; full-length B7-2; not shown: Junction residue Q and the hinge-CH2-CH3 of human IgG1 or IgG4 (hinge Cys to Ser, optionally CH2 mutated)
